Target: Bcl-xL (UniProt Q07817)
Assay: anti-myc co-IP, Bcl-xL immunoblot
Conditions: reference: myc-Rad9 wild type; sites S328

Substance: Rad9 (from UniProt Q99638) myc-Rad9 S328A
- binding against the reference: weaker
